# According to patent publication US6096512:
# Read-outs that look alike come from different tables or passages of the source.
# Assays:
# [1] = biological target: bovine apomucin (deglycosylated bovine submaxillary mucin) (bovine)
# [2] = biological target: bovine apomucin (deglycosylated bovine submaxillary mucin) (bovine); remark: listed apart in the source
# [3] = biological target: serine containing acceptor peptide …
# [4] = biological target: serine containing acceptor peptide …; remark: listed apart in the source
"Total activity (U), cell lysate [1]",specific activity of the purified enzyme preparation [2],Km [3],Km [4],Substance
16.2 U,,,,cloned full-length (membrane bound) bovine GalNAc-transferase expressed in Sf9 cells (enzyme)
,2160 U/mg protein,3.6 mM,3.5 mM,"soluble, secreted recombinant bovine GalNAc-transferase GalNAcTs (enzyme)"
